The numbers were not newly measured in PMC6347146, which cites them from elsewhere.

As a reminder, the Kd is the equilibrium constant for the complex coming apart.

The target of the data set is IL-21R (Homo sapiens) (UniProt Q9HBE5).
Chain of UniProt Q9HBE5 (Q9HBE5 20-232): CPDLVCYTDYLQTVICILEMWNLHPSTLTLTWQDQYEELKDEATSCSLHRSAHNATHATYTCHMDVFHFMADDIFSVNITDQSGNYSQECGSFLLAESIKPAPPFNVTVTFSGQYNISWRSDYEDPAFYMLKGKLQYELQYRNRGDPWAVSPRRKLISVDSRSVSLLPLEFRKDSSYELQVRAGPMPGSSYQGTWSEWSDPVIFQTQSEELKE

Regarding IL-21 (from UniProt Q9HBE4), the Kd was 0.07 nM.
